# Reference: patent publication US20230037815A1
# B1: CNG-CD19-702 (antibody, V domains shown)
# VH: QVQLQESGPGLVKPSQTLSLTCTVSGGSTSTSGMGVSWIRQHPGKGLEWIGHIWWDDDKRYNPVLKSRVTISVDTSKNQFSLKLSSVTAADTAVYYCARMELWSYYFDPWGQGTLVTVSS
# VL: EIVLTQSPATLSLSPGERATLSCSASSSVSYMHWYQQKPGQAPRLLIYDTSKLASGIPARFSGSGSGTDFTLTISSLEPEDFAVYYCFQGSVYPFTFGQGTKLEIK
# Molecular target: cynomolgus CD19 (cynomolgus)
# Assay: Octet HTX (ForteBio), IgG on AHC sensor, 1:1 fit
binder,measurement,value
B1,Kd,1.3 nM
same,koff,0.000295 s⁻¹
